Results as given in article PMC5563082 (2017).
Where a chain is given by its changes, count along the chain named.

Legend:
Assay in all cases: SPR
[1] = biological target: T1, human NL1(+A1+A2–B)_(ECTO), immobilised for SPR (human, biotin on the Avitag (in vivo biotinylation by BirA))
T1 chain: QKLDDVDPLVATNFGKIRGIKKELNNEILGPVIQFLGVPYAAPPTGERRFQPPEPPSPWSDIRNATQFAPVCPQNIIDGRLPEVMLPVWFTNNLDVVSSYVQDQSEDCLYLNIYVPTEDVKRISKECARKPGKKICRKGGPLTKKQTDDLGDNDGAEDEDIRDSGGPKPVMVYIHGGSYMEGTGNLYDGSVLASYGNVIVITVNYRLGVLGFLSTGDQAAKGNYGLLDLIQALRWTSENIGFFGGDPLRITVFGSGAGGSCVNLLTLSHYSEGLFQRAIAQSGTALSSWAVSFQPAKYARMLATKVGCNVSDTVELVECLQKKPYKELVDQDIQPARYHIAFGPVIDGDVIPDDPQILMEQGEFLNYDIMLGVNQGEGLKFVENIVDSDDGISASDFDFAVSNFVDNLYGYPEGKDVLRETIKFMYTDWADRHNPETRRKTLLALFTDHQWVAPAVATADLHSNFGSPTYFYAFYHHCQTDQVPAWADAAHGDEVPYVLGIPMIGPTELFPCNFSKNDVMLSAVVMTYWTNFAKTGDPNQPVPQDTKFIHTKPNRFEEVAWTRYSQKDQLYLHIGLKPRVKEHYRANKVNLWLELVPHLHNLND

[2] = biological target: T2, human NL1(–A–B)_(ECTO) Arg450Cys, immobilised for SPR (human, biotin on the Avitag (in vivo biotinylation by BirA))
T2 chain: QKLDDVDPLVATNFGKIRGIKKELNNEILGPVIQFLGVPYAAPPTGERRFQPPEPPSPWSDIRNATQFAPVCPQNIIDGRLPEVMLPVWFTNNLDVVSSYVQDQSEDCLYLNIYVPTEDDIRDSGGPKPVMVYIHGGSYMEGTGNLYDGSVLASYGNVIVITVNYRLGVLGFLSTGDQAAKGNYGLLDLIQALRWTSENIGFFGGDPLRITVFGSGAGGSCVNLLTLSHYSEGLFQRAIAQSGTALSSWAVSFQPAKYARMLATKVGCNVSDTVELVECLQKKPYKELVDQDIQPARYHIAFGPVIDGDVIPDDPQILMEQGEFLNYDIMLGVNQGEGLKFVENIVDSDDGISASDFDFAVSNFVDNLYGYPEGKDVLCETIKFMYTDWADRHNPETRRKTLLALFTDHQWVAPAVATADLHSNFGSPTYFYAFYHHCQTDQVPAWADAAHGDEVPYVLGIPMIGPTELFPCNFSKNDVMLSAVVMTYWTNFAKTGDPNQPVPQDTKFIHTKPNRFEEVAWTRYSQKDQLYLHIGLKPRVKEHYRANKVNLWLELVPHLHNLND

[3] = biological target: human NL3(–A)_(ECTO) Arg451Cys, immobilised for SPR (human, UniProt Q9NZ94-1 38-636, –A: nothing between Asp152 and Asp193 | R451C, biotin on the Avitag (in vivo biotinylation by BirA))
human NL3(–A)_(ECTO) Arg451Cys, immobilised for SPR, sequence (Q9NZ94 other isoform, or with tags, fused parts or gaps –A: nothing between Asp152 and Asp193 | R451C | R451C): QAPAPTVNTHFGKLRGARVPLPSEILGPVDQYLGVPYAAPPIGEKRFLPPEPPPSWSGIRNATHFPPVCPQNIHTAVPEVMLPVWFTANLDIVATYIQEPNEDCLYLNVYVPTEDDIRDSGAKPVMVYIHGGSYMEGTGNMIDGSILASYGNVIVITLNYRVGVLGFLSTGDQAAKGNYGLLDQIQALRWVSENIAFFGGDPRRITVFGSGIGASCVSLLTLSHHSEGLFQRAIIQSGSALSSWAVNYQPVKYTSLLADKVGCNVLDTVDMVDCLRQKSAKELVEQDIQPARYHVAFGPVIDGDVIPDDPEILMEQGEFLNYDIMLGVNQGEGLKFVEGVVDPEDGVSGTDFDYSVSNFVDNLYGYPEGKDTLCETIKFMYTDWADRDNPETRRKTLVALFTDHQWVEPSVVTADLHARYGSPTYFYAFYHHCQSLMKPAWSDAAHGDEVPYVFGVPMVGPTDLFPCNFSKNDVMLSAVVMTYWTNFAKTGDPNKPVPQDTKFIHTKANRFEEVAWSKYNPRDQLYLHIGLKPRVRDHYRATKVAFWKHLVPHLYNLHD

[4] = biological target: T3, human NL1(–A–B)_(ECTO), biotinylated and immobilised for SPR (human, biotin on the Avitag (in vivo biotinylation by BirA))
T3 chain: T2 chain with C379R

B1: human β-neurexin-1 LNS6 domain lacking SS4 (β-NRX1_(LNS6)(–4); His85-Val265) (domain or fragment)
chain: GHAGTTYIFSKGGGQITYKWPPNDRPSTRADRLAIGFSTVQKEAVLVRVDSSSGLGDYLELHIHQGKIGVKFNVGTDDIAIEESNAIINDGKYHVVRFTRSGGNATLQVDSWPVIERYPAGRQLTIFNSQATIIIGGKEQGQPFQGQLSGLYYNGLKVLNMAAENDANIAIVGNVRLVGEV
Kd [1]: 784 nM
Kd [2]: 760 nM
Kd [3]: 10800 nM

B2: human MDGA2 extracellular domain (MDGA2_(ECTO); Gln21-Lys927) (domain or fragment)
chain: QGVYAPPTVRIVHSGLACNIEEERYSERVYTIREGETLELTCLVTGHPRPQIRWTKTAGSASDRFQDSSVFNETLRITNIQRHQGGRYYCKAENGLGSPAIKSIRVDVYYLDDPVVTVHQSIGEAKEQFYYERTVFLRCVANSNPPVRYSWRRGQEVLLQGSDKGVEIYEPFFTQGETKILKLKNLRPQDYANYSCIASVRNVCNIPDKMVSFRLSNKTASPSIKLLVDDPIVVNPGEAITLVCVTTGGEPAPSLTWVRSFGTLPEKTVLNGGTLTIPAITSDDAGTYSCIANNNVGNPAKKSTNIIVRALKKGRFWITPDPYHKDDNIQIGREVKISCQVEAVPSEELTFSWFKNGRPLRSSERMVITQTDPDVSPGTTNLDIIDLKFTDFGTYTCVASLKGGGISDISIDVNISSSTVPPNLTVPQEKSPLVTREGDTIELQCQVTGKPKPIILWSRADKEVAMPDGSMQMESYDGTLRIVNVSREMSGMYRCQTSQYNGFNVKPREALVQLIVQYPPAVEPAFLEIRQGQDRSVTMSCRVLRAYPIRVLTYEWRLGNKLLRTGQFDSQEYTEYAVKSLSNENYGVYNCSIINEAGAGRCSFLVTGKAYAPEFYYDTYNPVWQNRHRVYSYSLQWTQMNPDAVDRIVAYRLGIRQAGQQRWWEQEIKINGNIQKGELITYNLTELIKPEAYEVRLTPLTKFGEGDSTIRVIKYSAPVNPHLREFHCGFEDGNICLFTQDDTDNFDWTKQSTATRNTKYTPNTGPNADRSGSKEGFYMYIETSRPRLEGEKARLLSPVFSIAPKNPYGPTNTAYCFSFFYHMYGQHIGVLNVYLRLKGQTTIENPLWSSSGNKGQRWNEAHVNIYPITSFQLIFEGIRGPGIEGDIAIDDVSIAEGECAKQDLATK
Kd [1]: 1410 nM

B3: human β-neurexin-1 LNS6 domain with SS4 (β-NRX1_(LNS6)(+4)) (domain or fragment)
chain: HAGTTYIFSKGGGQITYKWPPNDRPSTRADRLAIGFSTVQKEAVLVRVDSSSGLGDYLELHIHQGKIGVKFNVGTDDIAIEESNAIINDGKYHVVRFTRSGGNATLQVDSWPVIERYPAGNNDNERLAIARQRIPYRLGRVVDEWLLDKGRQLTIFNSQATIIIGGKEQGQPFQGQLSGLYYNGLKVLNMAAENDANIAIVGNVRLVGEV
Kd [1]: 2710 nM
Kd [4]: 2590 nM
Kd [2]: 2700 nM
Kd [3]: 47900 nM

B4: human MDGA1 extracellular domain (MDGA1_(ECTO); Gln19-Lys925) (domain or fragment)
chain: QGVYAPAQAQIVHAGQACVVKEDNISERVYTIREGDTLMLQCLVTGHPRPQVRWTKTAGSASDKFQETSVFNETLRIERIARTQGGRYYCKAENGVGVPAIKSIRVDVQYLDEPMLTVHQTVSDVRGNFYQEKTVFLRCTVNSNPPARFIWKRGSDTLSHSQDNGVDIYEPLYTQGETKVLKLKNLRPQDYASYTCQVSVRNVCGIPDKAITFRLTNTTAPPALKLSVNETLVVNPGENVTVQCLLTGGDPLPQLQWSHGPGPLPLGALAQGGTLSIPSVQARDSGYYNCTATNNVGNPAKKTVNLLVRSMKNATFQITPDVIKESENIQLGQDLKLSCHVDAVPQEKVTYQWFKNGKPARMSKRLLVTRNDPELPAVTSSLELIDLHFSDYGTYLCMASFPGAPVPDLSVEVNISSETVPPTISVPKGRAVVTVREGSPAELQCEVRGKPRPPVLWSRVDKEAALLPSGLPLEETPDGKLRLERVSRDMSGTYRCQTARYNGFNVRPREAQVQLNVQFPPEVEPSSQDVRQALGRPVLLRCSLLRGSPQRIASAVWRFKGQLLPPPPVVPAAAEAPDHAELRLDAVTRDSSGSYECSVSNDVGSAACLFQVSAKAYSPEFYFDTPNPTRSHKLSKNYSYVLQWTQREPDAVDPVLNYRLSIRQLNQHNAVVKAIPVRRVEKGQLLEYILTDLRVPHSYEVRLTPYTTFGAGDMASRIIHYTEPINSPNLSDNTCHFEDEKICGYTQDLTDNFDWTRQNALTQNPKRSPNTGPPTDISGTPEGYYMFIETSRPRELGDRARLVSPLYNASAKFYCVSFFYHMYGKHIGSLNLLVRSRNKGALDTHAWSLSGNKGNVWQQAHVPISPSGPFQIIFEGVRGPGYLGDIAIDDVTLKKGECPRKQTDPNK
Kd [1]: 3050 nM
Kd [4]: 1720 nM
